Reference: article PMC2801813 (Biochemistry, 2009)
Numbering of substitutions follows the chain as printed. Numbers in names are those of the source. Where “and” joins values, the source holds several entries; their conditions need not be identical. Equal values may be shown once.

Key:
purified protein = substrate: O=C(O)C(=O)O; experiment: purified protein; settings: buffer and temperature same
SEC = molecular target: the molecule itself; experiment: SEC

B1: OxDC (oxalate decarboxylase) (Bacillus subtilis subsp. subtilis str. 168; E101Q/E280Q) (protein)
chain: MKKQNDIPQPIRGDKGATVKIPRNIERDRQNPDMLVPPETDHGTVSNMKFSFSDTHNRLEKGGYAREVTVRELPISENLASVNMRLKPGAIRELHWHKEAQWAYMIYGSARVTIVDEKGRSFIDDVGEGDLWYFPSGLPHSIQALEEGAEFLLVFDDGSFSENSTFQLTDWLAHTPKEVIAANFGVTKEEISNLPGKEKYIFENQLPGSLKDDIVEGPNGEVPYPFTYRLLEQEPIESEGGKVYIADSTNFKVSKTIASALVTVEPGAMRELHWHPNTHQWQYYISGKARMTVFASDGHARTFNYQAGDVGYVPFAMGHYVENIGDEPLVFLEIFKDDHYADVSLNQWLAMLPETFVQAHLDLGKDFTDVLSKEKHPVVKKKCSK
In the case of B1, the Km (purified protein; 0.07 Mn/monomer) is reported as 2.9 ± 0.3 mM, the kcat (purified protein; 0.07 Mn/monomer) is reported as 0.012 ± 0.0003 s⁻¹ and the kcat/Km (purified protein; 0.07 Mn/monomer) is reported as 4 M⁻¹ s⁻¹.

B2: OxDC (oxalate decarboxylase) (Bacillus subtilis subsp. subtilis str. 168; E101A) (protein)
chain: B1 chain with Q101A, Q280E
B2 gave a Km (purified protein; 0.18 Mn/monomer) of 2.9 ± 0.3 mM, a kcat (purified protein; 0.18 Mn/monomer) of 0.046 ± 0.002 s⁻¹ and a kcat/Km (purified protein; 0.18 Mn/monomer) of 16 M⁻¹ s⁻¹.

B3: recombinant, wild-type Bacillus subtilis oxalate decarboxylase (enzyme, UniProt O34714 1-385, looked up)
chain: B1 chain with Q101E, Q280E
B3 was tested, and the “stoichiometry N” value (SEC) was 6 and 12 monomers to 18 monomers (2×).

B4: OxDC (oxalate decarboxylase) (Bacillus subtilis subsp. subtilis str. 168; E280A) (protein)
chain: B1 chain with Q101E, Q280A
For B4, the Km (purified protein; 0.67 Mn/monomer) was 3.0 ± 0.2 mM, the kcat (purified protein; 0.67 Mn/monomer) was 0.019 ± 0.001 s⁻¹ and the kcat/Km (purified protein; 0.67 Mn/monomer) was 6 M⁻¹ s⁻¹.

B5: OxDC (oxalate decarboxylase) (Bacillus subtilis subsp. subtilis str. 168; E101D) (protein)
chain: B1 chain with Q101D, Q280E
B5 gave a Km (purified protein; 0.09 Mn/monomer) of 3.4 ± 0.1 mM, a kcat (purified protein; 0.09 Mn/monomer) of 0.49 ± 0.01 s⁻¹ and a kcat/Km (purified protein; 0.09 Mn/monomer) of 144 M⁻¹ s⁻¹.

B6: OxDC (oxalate decarboxylase) (Bacillus subtilis subsp. subtilis str. 168; E101Q) (protein)
chain: B1 chain with Q280E
B6 gave a Km (purified protein; 0.11 Mn/monomer) of 4.0 ± 0.2 mM, a kcat (purified protein; 0.11 Mn/monomer) of 0.62 ± 0.01 s⁻¹ and a kcat/Km (purified protein; 0.11 Mn/monomer) of 155 M⁻¹ s⁻¹.

B7: OxDC (oxalate decarboxylase) (Bacillus subtilis subsp. subtilis str. 168; E280D) (protein)
chain: B1 chain with Q101E, Q280D
Work on B7 yielded a Km (purified protein; 0.64 Mn/monomer) of 5.4 ± 0.4 mM, a kcat (purified protein; 0.64 Mn/monomer) of 0.14 ± 0.01 s⁻¹ and a kcat/Km (purified protein; 0.64 Mn/monomer) of 26 M⁻¹ s⁻¹.

B8: OxDC (oxalate decarboxylase) (Bacillus subtilis subsp. subtilis str. 168; E280Q) (protein)
chain: B1 chain with Q101E
For B8, the Km (purified protein; 0.73 Mn/monomer) was 10.1 ± 0.6 mM, the kcat (purified protein; 0.73 Mn/monomer) was 0.62 ± 0.01 s⁻¹ and the kcat/Km (purified protein; 0.73 Mn/monomer) was 61 M⁻¹ s⁻¹.
